In experiment [1] the target is His-tagged recombinant rat AKAP18δ (rAKAP18δ) (rat) (UniProt Q6JP77). Description: co-IP with anti-his beads, anti-Flag immunoblot, band ratios; reference is the same reaction without rPKAc.
In experiment [2] the target is T1, Purified recombinant SERCA2 (rSERCA2, Abnova) (UniProt P16615 1-1042, limits assumed).
T1 construct: Bought protein; The legend gives 1042 amino acids, while the discussion calls it SERCA2a
As to the kind of experiment: co-IP of the Flag-tagged construct with purified rSERCA2 (150 ng), anti-Flag IP, anti-SERCA2 immunoblot. The text has this:
FIG. 11 a-d. rPKAc phosphorylates rhPDE3A and increases its interactions rSERCA2. A. Schemes representing PDE3A1 [NHR1: trans-membrane domain (obligatory membrane insertion domain); NHR2: membrane association domain; CCR: conserved C-terminal catalytic region; P1-4: predicted PKA phosphorylation sites; rhPDE3A and truncated mutants (PDE3A2, PDE3A-A510, PDE3A-RD), and rSERCA2 (1042 amino acids, 3-77 cation transporter N-terminal; 93-341, E1-E2 ATPase; 345-724, haloacid dehydrogenase like hydrolase; 819-991, cation transporter ATPase C-terminus). B. Putative PKA phosphorylation sites of PDE3A designated with asterisks. […] Proteins were immunoprecipitated with anti-Flag antibodies and immunoblotted with anti-SERCA2 (upper panel), or anti-Flag (middle panel). Lower panel: input control (SERCA2). Shown are representative blots from three independent experiments. (RD: regulatory domain; AA: amino acid).

The source of these data is patent US20160083701A1 (UNITED STATES OF AMERICA AS REPRESENTED BY THE DEPARTMENT …, published 2016).

Chain of His-tagged recombinant rat AKAP18δ (rAKAP18δ) (rat) (Q6JP77 whole entry, stated change not applied): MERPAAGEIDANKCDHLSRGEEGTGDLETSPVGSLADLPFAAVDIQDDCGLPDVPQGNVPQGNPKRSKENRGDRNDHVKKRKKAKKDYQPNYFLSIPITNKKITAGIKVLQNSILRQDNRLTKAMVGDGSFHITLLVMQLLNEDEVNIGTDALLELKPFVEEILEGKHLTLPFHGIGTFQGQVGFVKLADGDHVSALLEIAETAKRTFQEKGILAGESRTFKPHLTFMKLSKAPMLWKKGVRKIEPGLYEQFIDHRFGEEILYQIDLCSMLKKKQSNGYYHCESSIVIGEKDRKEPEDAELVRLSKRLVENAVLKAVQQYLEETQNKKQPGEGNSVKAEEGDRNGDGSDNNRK
T1 sequence (P16615 whole entry): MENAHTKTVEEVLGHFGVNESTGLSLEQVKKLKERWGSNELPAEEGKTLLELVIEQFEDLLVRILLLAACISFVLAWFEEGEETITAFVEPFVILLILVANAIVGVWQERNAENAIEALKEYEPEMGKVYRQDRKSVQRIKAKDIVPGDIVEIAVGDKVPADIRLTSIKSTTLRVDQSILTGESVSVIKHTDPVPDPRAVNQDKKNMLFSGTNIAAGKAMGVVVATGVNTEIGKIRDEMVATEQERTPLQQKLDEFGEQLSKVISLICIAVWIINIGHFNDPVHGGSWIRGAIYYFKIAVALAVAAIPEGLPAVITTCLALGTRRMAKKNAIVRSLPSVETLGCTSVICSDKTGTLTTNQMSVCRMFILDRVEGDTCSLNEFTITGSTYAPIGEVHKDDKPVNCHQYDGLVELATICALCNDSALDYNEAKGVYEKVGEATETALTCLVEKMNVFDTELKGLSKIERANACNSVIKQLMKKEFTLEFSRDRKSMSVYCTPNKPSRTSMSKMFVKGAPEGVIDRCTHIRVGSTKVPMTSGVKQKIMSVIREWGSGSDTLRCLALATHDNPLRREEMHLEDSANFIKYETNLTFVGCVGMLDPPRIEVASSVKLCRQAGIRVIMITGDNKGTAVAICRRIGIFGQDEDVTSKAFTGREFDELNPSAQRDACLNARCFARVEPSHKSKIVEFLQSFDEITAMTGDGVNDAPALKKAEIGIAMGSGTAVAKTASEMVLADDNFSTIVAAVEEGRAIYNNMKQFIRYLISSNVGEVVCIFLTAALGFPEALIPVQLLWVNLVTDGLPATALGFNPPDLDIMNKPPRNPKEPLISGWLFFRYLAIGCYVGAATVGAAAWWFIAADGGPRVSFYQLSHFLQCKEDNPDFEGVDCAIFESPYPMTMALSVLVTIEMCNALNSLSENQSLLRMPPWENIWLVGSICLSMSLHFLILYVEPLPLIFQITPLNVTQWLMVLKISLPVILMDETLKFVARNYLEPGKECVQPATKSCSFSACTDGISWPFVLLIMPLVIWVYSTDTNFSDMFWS

With “Flag-tagged recombinant human PDE3A1 (rhPDE3A1), phosphorylated in vitro by rPKAc (from UniProt Q14432 146-1141) (enzyme)”, the fold increase in binding (with rPKAc against control without rPKAc) in experiment [1] came out at 9 fold.

B1: rhPDE3A-A510 (recombinant form lacking the first 510 aa of the PDE3A open reading frame) (enzyme)
chain: SRPGALAKISPLSSPCSSPLQGTPASSLVSKISAVQFPESADTTAKQSLGSHRALTYTQSAPDLSPQILTPPVICSSCGRPYSQGNPADEPLERSGVATRTPSRTDDTAQVTSDYETNNNSDSSDIVQNEDETECLREPLRKASACSTYAPETMMFLDKPILAPEPLVMDNLDSIMEQLNTWNFPIFDLVENIGRKCGRILSQVSYRLFEDMGLFEAFKIPIREFMNYFHALEIGYRDIPYHNRIHATDVLHAVWYLTTQPIPGLSTVINDHGSTSDSDSDSGFTHGHMGYVFSKTYNVTDDKYGCLSGNIPALELMALYVAAAMHDYDHPGRTNAFLVATSAPQAVLYNDRSVLENHHAAAAWNLFMSRPEYNFLINLDHVEFKHFRFLVIEAILATDLKKHFDFVAKFNGKVNDDVGIDWTNENDRLLVCQMCIKLADINGPAKCKELHLQWTDGIVNEFYEQGDEEASLGLPISPFMDRSAPQLANLQESFISHIVGPLCNSYDSAGLMPGKWVEDSDESGDTDDPEEEEEEAPAPNEEETCENNESPKKKTFKRRKIYCQITQHLLQNHKMWKKVIEEEQRLAGIENQSLDQTPQSHSSEQIQAIKEEEEEKGKPRGEEIPTQKPDQ
notes: The range 511-1141 follows from the statement that the first 510 aa of the open reading frame were deleted; Incubated with or without rPKAc
On to B1, for which the binding result in experiment [2] is “no binding”.
